Measurements published in US20220089698A1 (published 2022).

What was measured:
[1] = molecular target: HIV gp120 CAAN (HIV); experiment: single-point ELISA; further: test concentration or dose not given here
[2] = molecular target: HIV gp120 Bal (HIV); experiment: single-point ELISA; further: test concentration or dose not given here

Binder | ELISA (A450) [1] | ELISA (A450) [2]
1.1.25-1 (antibody, human IgG1, kappa) heavy: QVQLLQSGAAVTKPGASVRVSCEASGYNIRDYFIHWWRQAPGQGLQWVGWINPKTGQPNNPRQFQGRVSLTRHASWDFDTFSFYMDLKALRSDDTAVYFCARQRSDYWDFDVWGSGTQVTVSSASTKGPSVFPLAPSSKSTSGGTAALGCLVKDYFPEPVTVSWNSGALTSGVHTFPAVLQSSGLYSLSSVVTVPSSSLGTQTYICNVNHKPSNTKVDKKVEPKSCDKTHTCPPCPAPELLAGPDVFLFPPKPKDTLMISRTPEVTCVVVDVSHEDPEVKFNWYVDGVEVHNAKTKPREEQYNSTYRVVSVLTVLHQDWLNGKEYKCKVSNKALPLPEEKTISKAKGQPREPQVYTLPPSREEMTKNQVSLTCLVKGFYPSDIAVEWESNGQPENNYKTTPPVLDSDGSFFLYSKLTVDKSRWQQGNVFSCSVLHEALHSHYTQKSLSLSPGK light: DIQMTQSPSSLSASVGDTVTITCQANGYLNWYQQRRGKAPKLLIYDGSKLERGVPSRFSGRRWGQEYNLTINNLQPEDIATYFCQVYEFVVPGTNVDLKRTVAAPSVFIFPPSDEQLKSGTASVVCLLNNFYPREAKVQWKVDNALQSGNSQESVTEQDSKDSTYSLSSTLTLSKADYEKHKVYACEVTHQGLSSPVTKSFNRGEC | 0.92 A450 | 0.9 A450
1.1.26-1 (antibody, human IgG1, kappa) heavy: QVQLLQSGAAVTKPGASVRVSCEASGYNIRDYFIHWWRQAPGQGLQWVGWINPKTGQPNNPRQFQGRVSLTRHASWDFDTFSFYMDLKALRSDDTAVYFCARQRSDYWDFDVWGSGTQVTVSSASTKGPSVFPLAPSSKSTSGGTAALGCLVKDYFPEPVTVSWNSGALTSGVHTFPAVLQSSGLYSLSSVVTVPSSSLGTQTYICNVNHKPSNTKVDKKVEPKSCDKTHTCPPCPAPELLAGPDVFLFPPKPKDTLMISRTPEVTCVVVDVSHEDPEVKFNWYVDGVEVHNAKTKPREEQYNSTYRVVSVLTVLHQDWLNGKEYKCKVSNKALPLPEEKTISKAKGQPREPQVYTLPPSREEMTKNQVSLTCLVKGFYPSDIAVEWESNGQPENNYKTTPPVLDSDGSFFLYSKLTVDKSRWQQGNVFSCSVLHEALHSHYTQKSLSLSPGK light: DIQMTQSPSSLSASVGDTVTITCQANGYLNWYQQRRGKAPKLLIYDGSKLERGVPSRFSGRRWGQEYNLTINNLQPEDIATYFCQVYEFVVPGTRLDIKRTVAAPSVFIFPPSDEQLKSGTASVVCLLNNFYPREAKVQWKVDNALQSGNSQESVTEQDSKDSTYSLSSTLTLSKADYEKHKVYACEVTHQGLSSPVTKSFNRGEC | 1.07 A450 | 0.96 A450
1.1.27-1 (antibody, human IgG1, kappa) heavy: QVQLLQSGAAVTKPGASVRVSCEASGYNIRDYFIHWWRQAPGQGLQWVGWINPKTGQPNNPRQFQGRVSLTRHASWDFDTFSFYMDLKALRSDDTAVYFCARQRSDYWDFDVWGSGTQVTVSSASTKGPSVFPLAPSSKSTSGGTAALGCLVKDYFPEPVTVSWNSGALTSGVHTFPAVLQSSGLYSLSSVVTVPSSSLGTQTYICNVNHKPSNTKVDKKVEPKSCDKTHTCPPCPAPELLAGPDVFLFPPKPKDTLMISRTPEVTCVVVDVSHEDPEVKFNWYVDGVEVHNAKTKPREEQYNSTYRVVSVLTVLHQDWLNGKEYKCKVSNKALPLPEEKTISKAKGQPREPQVYTLPPSREEMTKNQVSLTCLVKGFYPSDIAVEWESNGQPENNYKTTPPVLDSDGSFFLYSKLTVDKSRWQQGNVFSCSVLHEALHSHYTQKSLSLSPGK light: DIQMTQSPSSLSASVGDTVTITCQANGYLNWYQQRRGKAPKLLIYDGSKLERGVPSRFSGRRWGQEYNLTINNLQPEDIATYFCQVYEFVVPGTRVDIKRTVAAPSVFIFPPSDEQLKSGTASVVCLLNNFYPREAKVQWKVDNALQSGNSQESVTEQDSKDSTYSLSSTLTLSKADYEKHKVYACEVTHQGLSSPVTKSFNRGEC | 0.99 A450 | 0.97 A450
1.1.28-1 (antibody, human IgG1, kappa) heavy: QVQLLQSGAAVTKPGASVRVSCEASGYNIRDYFIHWWRQAPGQGLQWVGWINPKTGQPNNPRQFQGRVSLTRHASWDFDTFSFYMDLKALRSDDTAVYFCARQRSDYWDFDVWGSGTQVTVSSASTKGPSVFPLAPSSKSTSGGTAALGCLVKDYFPEPVTVSWNSGALTSGVHTFPAVLQSSGLYSLSSVVTVPSSSLGTQTYICNVNHKPSNTKVDKKVEPKSCDKTHTCPPCPAPELLAGPDVFLFPPKPKDTLMISRTPEVTCVVVDVSHEDPEVKFNWYVDGVEVHNAKTKPREEQYNSTYRVVSVLTVLHQDWLNGKEYKCKVSNKALPLPEEKTISKAKGQPREPQVYTLPPSREEMTKNQVSLTCLVKGFYPSDIAVEWESNGQPENNYKTTPPVLDSDGSFFLYSKLTVDKSRWQQGNVFSCSVLHEALHSHYTQKSLSLSPGK light: DIQMTQSPSSLSASVGDTVTITCQANGYLNWYQQRRGKAPKLLIYDGSKLERGVPSRFSGRRWGQEYNLTINNLQPEDIATYFCQVYEFVVPGTNVDIKRTVAAPSVFIFPPSDEQLKSGTASVVCLLNNFYPREAKVQWKVDNALQSGNSQESVTEQDSKDSTYSLSSTLTLSKADYEKHKVYACEVTHQGLSSPVTKSFNRGEC | 0.93 A450 | 0.98 A450
1.1.29-1 (antibody, human IgG1, kappa) heavy: QVQLLQSGAAVTKPGASVRVSCEASGYNIRDYFIHWWRQAPGQGLQWVGWINPKTGQPNNPRQFQGRVSLTRHASWDFDTFSFYMDLKALRSDDTAVYFCARQRSDYWDFDVWGSGTQVTVSSASTKGPSVFPLAPSSKSTSGGTAALGCLVKDYFPEPVTVSWNSGALTSGVHTFPAVLQSSGLYSLSSVVTVPSSSLGTQTYICNVNHKPSNTKVDKKVEPKSCDKTHTCPPCPAPELLAGPDVFLFPPKPKDTLMISRTPEVTCVVVDVSHEDPEVKFNWYVDGVEVHNAKTKPREEQYNSTYRVVSVLTVLHQDWLNGKEYKCKVSNKALPLPEEKTISKAKGQPREPQVYTLPPSREEMTKNQVSLTCLVKGFYPSDIAVEWESNGQPENNYKTTPPVLDSDGSFFLYSKLTVDKSRWQQGNVFSCSVLHEALHSHYTQKSLSLSPGK light: DIQMTQSPSSLSASVGDTVTITCQANGYLNWYQQRRGKAPKLLIYDGSKLERGVPSRFSGRRWGQEYNLTINNLQPEDIATYFCQVYEFVGPGTNVDIKRTVAAPSVFIFPPSDEQLKSGTASVVCLLNNFYPREAKVQWKVDNALQSGNSQESVTEQDSKDSTYSLSSTLTLSKADYEKHKVYACEVTHQGLSSPVTKSFNRGEC | 1.01 A450 | 0.91 A450
1.1.30-1 (antibody, human IgG1, kappa) heavy: QVQLLQSGAAVTKPGASVRVSCEASGYNIRDYFIHWWRQAPGQGLQWVGWINPKTGQPNNPRQFQGRVSLTRHASWDFDTFSFYMDLKALRSDDTAVYFCARQRSDYWDFDVWGSGTQVTVSSASTKGPSVFPLAPSSKSTSGGTAALGCLVKDYFPEPVTVSWNSGALTSGVHTFPAVLQSSGLYSLSSVVTVPSSSLGTQTYICNVNHKPSNTKVDKKVEPKSCDKTHTCPPCPAPELLAGPDVFLFPPKPKDTLMISRTPEVTCVVVDVSHEDPEVKFNWYVDGVEVHNAKTKPREEQYNSTYRVVSVLTVLHQDWLNGKEYKCKVSNKALPLPEEKTISKAKGQPREPQVYTLPPSREEMTKNQVSLTCLVKGFYPSDIAVEWESNGQPENNYKTTPPVLDSDGSFFLYSKLTVDKSRWQQGNVFSCSVLHEALHSHYTQKSLSLSPGK light: DIQMTQSPSSLSASVGDTVTITCQANGYLNWYQQRRGKAPKLLIYDGSKLERGVPSRFSGRRWGQEYNLTINNLQPEDIATYFCQVYEFVTPGTNVDIKRTVAAPSVFIFPPSDEQLKSGTASVVCLLNNFYPREAKVQWKVDNALQSGNSQESVTEQDSKDSTYSLSSTLTLSKADYEKHKVYACEVTHQGLSSPVTKSFNRGEC | 0.86 A450 | 0.9 A450
1.12.15-1 (antibody, human IgG1, kappa) heavy: QVQLLQSGAAVTKPGASVRVSCEASGYNIRDYFIHWVRQAPGQGLQWVGWINPKTGQPNNPRQFQGRVSLTRHASWDFDTFSFYMDLKALRSDDTAVYFCARQRSDYWDFDVWGSGTQVTVSSASTKGPSVFPLAPSSKSTSGGTAALGCLVKDYFPEPVTVSWNSGALTSGVHTFPAVLQSSGLYSLSSVVTVPSSSLGTQTYICNVNHKPSNTKVDKKVEPKSCDKTHTCPPCPAPELLAGPDVFLFPPKPKDTLMISRTPEVTCVVVDVSHEDPEVKFNWYVDGVEVHNAKTKPREEQYNSTYRVVSVLTVLHQDWLNGKEYKCKVSNKALPLPEEKTISKAKGQPREPQVYTLPPSREEMTKNQVSLTCLVKGFYPSDIAVEWESNGQPENNYKTTPPVLDSDGSFFLYSKLTVDKSRWQQGNVFSCSVLHEALHSHYTQKSLSLSPGK light: DIQMTQSPSSLSASVGDTVTITCQANGYLNWYQQRRGKAPKLLIYDGSKLERGVPSRFSGRRWGQEYNLTINNLQPEDIATYFCQVYEFFVPGTRLDLKRTVAAPSVFIFPPSDEQLKSGTASVVCLLNNFYPREAKVQWKVDNALQSGNSQESVTEQDSKDSTYSLSSTLTLSKADYEKHKVYACEVTHQGLSSPVTKSFNRGEC | 0.63 A450 | 0.69 A450
1.13.15-1 (antibody, human IgG1, kappa) heavy: QVQLLQSGAAVTKPGASVRVSCEASGYNIRDYFMHWVRQAPGQGLQWVGWINPKTGQPNNPRQFQGRVSLTRHASWDFDTFSFYMDLKALRSDDTAVYFCARQRSDYWDFDVWGSGTQVTVSSASTKGPSVFPLAPSSKSTSGGTAALGCLVKDYFPEPVTVSWNSGALTSGVHTFPAVLQSSGLYSLSSVVTVPSSSLGTQTYICNVNHKPSNTKVDKKVEPKSCDKTHTCPPCPAPELLAGPDVFLFPPKPKDTLMISRTPEVTCVVVDVSHEDPEVKFNWYVDGVEVHNAKTKPREEQYNSTYRVVSVLTVLHQDWLNGKEYKCKVSNKALPLPEEKTISKAKGQPREPQVYTLPPSREEMTKNQVSLTCLVKGFYPSDIAVEWESNGQPENNYKTTPPVLDSDGSFFLYSKLTVDKSRWQQGNVFSCSVLHEALHSHYTQKSLSLSPGK light: DIQMTQSPSSLSASVGDTVTITCQANGYLNWYQQRRGKAPKLLIYDGSKLERGVPSRFSGRRWGQEYNLTINNLQPEDIATYFCQVYEFFVPGTRLDLKRTVAAPSVFIFPPSDEQLKSGTASVVCLLNNFYPREAKVQWKVDNALQSGNSQESVTEQDSKDSTYSLSSTLTLSKADYEKHKVYACEVTHQGLSSPVTKSFNRGEC | 0.6 A450 | 0.7 A450
1.12.17-1 (antibody, human IgG1, kappa, V domains shown) VH: QVQLLQSGAAVTKPGASVRVSCEASGYNIRDYFIHWVRQAPGQGLQWVGWINPKTGQPNNPRQFQGRVSLTRHASWDFDTFSFYMDLKALRSDDTAVYFCARQRSDYWDFDVWGSGTQVTVSS VL: DIQMTQSPSSLSASVGDTVTITCQANGYLNWYQQRRGKAPKLLIYDGSKLERGVPSRFSGRRWGQEYNLTINNLQPEDIATYFCQVYEFFGPGTRLDLKR | 0.84 A450 | 0.9 A450
1.13.17-1 (antibody, human IgG1, kappa, V domains shown) VH: QVQLLQSGAAVTKPGASVRVSCEASGYNIRDYFMHWVRQAPGQGLQWVGWINPKTGQPNNPRQFQGRVSLTRHASWDFDTFSFYMDLKALRSDDTAVYFCARQRSDYWDFDVWGSGTQVTVSS VL: DIQMTQSPSSLSASVGDTVTITCQANGYLNWYQQRRGKAPKLLIYDGSKLERGVPSRFSGRRWGQEYNLTINNLQPEDIATYFCQVYEFFGPGTRLDLKR | 0.78 A450 | 1.02 A450
